Measured values as given in PMC5358875 (Journal of the American Chemical Society, 2017).
Bridge positions count the residues as written; N and C are the ends. Square brackets hold non-standard residues; d marks the D form. Ends that are not written are not given here. * marks the point of attachment. 5‑TAMRA = CN(C)c1ccc2c(-c3ccc(C(=O)*)cc3C(=O)[O-])c3ccc(N(C)C)cc3[o+]c2c1; n3 = azido unnatural amino acid, 3 CH2 in side chain; Orn(N3) = [N-]=[N+]=NCCC[C@H](N)C(=O)O; Dap(N3) = [N-]=[N+]=NC[C@H](N)C(=O)O; Aha = [N-]=[N+]=NCC[C@H](N)C(=O)O; m3N = not defined here; m3c = not defined here; m3 = not defined here; m4 = not defined here; m5 = not defined here; Ahx = NCCCCCC(=O)O

Tests used:
TNKS2 ARC4 = biological target: T1, TNKS2 ARC4 (Homo sapiens, UniProt Q9H2K2); experiment: Direct fluorescence polarization, TNKS2 ARC4; type: binding; conditions: TAMRA-labeled peptides, n.d. = not detectable; for Kd: read-out: Kd TNKS2 ARC4 (Direct FP)
T1 construct: GST (cleaved yes); made in house; host or cells: E. coli C41(DE3)
T1 sequence (Q9H2K2 488-649): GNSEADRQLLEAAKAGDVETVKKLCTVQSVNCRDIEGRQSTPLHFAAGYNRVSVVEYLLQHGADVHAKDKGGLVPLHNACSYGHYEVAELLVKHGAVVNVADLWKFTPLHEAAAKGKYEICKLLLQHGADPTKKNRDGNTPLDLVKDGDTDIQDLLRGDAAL
Procedure: Fluorescence polarization (FP) assays were performed in 96-well half area black microplates (Corning) on a CLARIOstar microplate reader (BMG labtech) using excitation filter 540–20 nm, dichroic mirror LP 566 nm, and emission filter 590–20 nm. All peptides were dissolved in water as stock solutions. For direct FP assays, the stock concentrations of the TAMRA-labeled peptides were determined based on the 5-TAMRA absorbance at 556 nm (extinction coefficient ε = 89,000 M^–1 cm^–1) measured on a NanoDrop 2000 (Thermo Scientific) and verified by amino acid analysis (Department of Biochemistry, University of Cambridge). TNKS2 ARC4 (488–649) or TNKS1 ARC2–3 (315–662) was diluted 2-fold serially in the assay buffer (50 mM HEPES pH 7.5, 300 mM NaCl, 2 mM DTT, 0.05% (v/v) Tween 20) for a 12-point titration curve in triplicate. The diluted TAMRA-labeled peptide (20 nM, 50 μL) was mixed with the serially diluted TNKS2 ARC4 or TNKS1 ARC2–3 (40–0 μM, 50 μL) in each well and incubated for 30 min at 25 °C before the measurement. Data were analyzed on GraphPad Prism 5.0, and the dissociation constant, Kd, was determined using the following equation assuming the ratio between the concentration of the bound and that of the total TAMRA-labeled peptide is proportional to the fluorescence polarization [drawing 1] where FP is the fluorescence polarization, B is the minimum FP, T is the maximum FP, L0 is the total concentration of TAMRA-labeled peptide, P0 is the total concentration of protein, and Kd is the dissociation constant.

[1] = biological target: T2, human tankyrase 2 ankyrin repeat cluster 4 (TNKS2 ARC4, residues 488-649) (human, UniProt Q9H2K2 488-649); experiment: fluorescence polarisation; competition: unlabeled peptide or Axin1 fragment diluted 2-fold serially against TAMRA-labeled pep1 (20 nM) with TNKS2 ARC4 (3 uM); PBS, 0.05% Tween 20; 30 min, 25 C; conditions: both partners purified
T2 sequence (looked up): T1 sequence (Q9H2K2 488-649)

[2] = biological target: T2, human tankyrase 2 ankyrin repeat …; experiment: ITC; TNKS2 ARC4 (160-280 uM) or TNKS1 ARC2-3 (60-150 uM) titrated into the cell with unlabeled peptide (5-15 uM) or Axin1 fragment (8-12 uM); PBS, 0.5 mM TCEP; 25 C; one-site model; stoichiometry = TNKS per peptide or Axin1; conditions: both partners purified
[3] = biological target: T3, human tankyrase 1 ankyrin repeat clusters 2-3 (TNKS1 ARC2-3, residues 315-662) (human, UniProt O95271 315-662); experiment: as above; conditions: both partners purified
T3 sequence (looked up): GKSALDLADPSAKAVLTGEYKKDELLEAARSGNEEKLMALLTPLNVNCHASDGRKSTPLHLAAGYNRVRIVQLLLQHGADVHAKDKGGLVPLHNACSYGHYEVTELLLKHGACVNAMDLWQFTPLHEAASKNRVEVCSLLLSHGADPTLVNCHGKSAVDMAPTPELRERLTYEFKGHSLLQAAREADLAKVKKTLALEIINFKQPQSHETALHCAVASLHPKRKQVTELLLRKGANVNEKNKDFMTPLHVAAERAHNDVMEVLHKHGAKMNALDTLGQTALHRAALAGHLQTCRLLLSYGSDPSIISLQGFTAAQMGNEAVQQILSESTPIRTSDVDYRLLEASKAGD

TNKS1 ARC2-3 = biological target: T4, TNKS1 ARC2-3 (Homo sapiens, UniProt O95271); experiment: Isothermal titration calorimetry, TNKS1 ARC2-3; type: binding; conditions: unlabeled peptides and Axin proteins
T4 construct: His6 (cleaved yes); made in house; host or cells: E. coli C41(DE3)
T4 sequence (O95271 315-662): T3 sequence (looked up)
Procedure: All ITC experiments were performed on a MicroCal iTC200 (GE Healthcare) at 25 °C. TNKS2 ARC4 (488–649), TNKS1 ARC2–3 (315–662), and Axin1 fragments were dialyzed overnight in PBS and 0.5 mM TCEP. Unlabeled peptides were used in the experiments. The peptide was diluted from the stock solution using the same dialysis buffer, and the effect of buffer dilution was accounted for when preparing TNKS samples. TNKS2 ARC4 (160–280 μM) or TNKS1 ARC2–3 (60–150 μM) was titrated into the sample cell containing the peptide (5–15 μM) or Axin1 fragments (8–12 μM) with an initial injection of 0.2 μL over 0.4 s followed by 19 injections of 2 μL over 4 s with a spacing of 60 s, except for TNKS2 ARC4 and Axin1 fragments for which the spacing was 70 s. Control experiments were performed using the same settings as above except that the cell was filled with dialysis buffer. Data were fitted with nonlinear regression using a one-site binding model from Origin 7.0 (MicroCal, Inc.).[90]

[4] = biological target: T3, human tankyrase 1 ankyrin repeat …; experiment: fluorescence polarisation; direct: TNKS2 ARC4 or TNKS1 ARC2-3 diluted 2-fold serially (40-0 uM, 50 uL) and mixed with TAMRA-labeled peptide (20 nM, 50 uL); 50 mM HEPES pH 7.5, 300 mM NaCl, 2 mM DTT, 0.05% Tween 20; 30 min, 25 C; conditions: both partners purified
[5] = biological target: T2, human tankyrase 2 ankyrin repeat …; experiment: as above; conditions: both partners purified
TNKS2 ARC4 (488–649) = biological target: T5, TNKS2 ARC4 (488–649) (human, UniProt Q9H2K2 488-649); experiment: FP
T5 chain: T1 sequence (Q9H2K2 488-649)

`CN(C)c1ccc2c(c1)Oc1cc(N(C)C)ccc1C21OC(=O)c2cc(C(=O)NCCCCCC(=O)N[C@@H](CCCNC(=N)N)C(=O)N[C@@H](CCC(=O)O)C(=O)N[C@H]3CCn4cc(nn4)CCCc4cn(nn4)CCC[C@@H](C(=O)N[C@@H](CCC(=O)O)C(N)=O)NC(=O)CNC(=O)[C@H](CC(=O)O)NC(=O)CNC3=O)ccc21` [T-cp4n23m3] showed a Kd (TNKS2 ARC4) of 1.1 ± 0.04 µM.

With “cp4n1m3: non-binding cross-linked peptide, REXGDGXE, UAA side chains n=1, linker m3 (RE[Dap(N3)]GDG[Dap(N3)]E; linker 3-7 via m3 (inferred); reading uncertain)” the “Kd TNKS2 ARC4 (Direct FP)” value (TNKS2 ARC4) was “nondetectable”.

For `CN(C)c1ccc2c(c1)Oc1cc(N(C)C)ccc1C21OC(=O)c2cc(C(=O)NCCCCCC(=O)N[C@@H](CCCNC(=N)N)C(=O)N[C@@H](CCC(=O)O)C(=O)N[C@H]3CCn4cc(nn4)-c4cc(C(=O)N[C@@H](CCCNC(=N)N)C(=O)N[C@@H](CCCNC(=N)N)C(=O)N[C@@H](CCCNC(=N)N)C(=O)N[C@@H](CCCNC(=N)N)C(=O)N[C@@H](CCCNC(=N)N)C(=O)N[C@@H](CCCNC(=N)N)C(=O)N[C@@H](CCCNC(=N)N)C(=O)N[C@@H](CCCNC(=N)N)C(=O)N[C@@H](CCCNC(=N)N)C(N)=O)cc(c4)-c4cn(nn4)CC[C@@H](C(=O)N[C@@H](CCC(=O)O)C(N)=O)NC(=O)CNC(=O)[C@H](CC(=O)O)NC(=O)CNC3=O)ccc21` [T-cp4n2m3c-R9], the Kd (TNKS2 ARC4) was 0.74 ± 0.03 µM.

With `CN(C)c1ccc2c(c1)Oc1cc(N(C)C)ccc1C21OC(=O)c2cc(C(=O)NCCCCCC(=O)N[C@@H](CCCNC(=N)N)C(=O)N[C@@H](CCC(=O)O)C(=O)N[C@H]3CCn4cc(nn4)CCCCc4cn(nn4)CC[C@@H](C(=O)N[C@@H](CCC(=O)O)C(N)=O)NC(=O)CNC(=O)[C@H](CC(=O)O)NC(=O)CNC3=O)ccc21` [T-cp4n2m4] the Kd (TNKS2 ARC4) was 0.8 ± 0.02 µM.

Molecule `CN(C)c1ccc2c(c1)Oc1cc(N(C)C)ccc1C21OC(=O)c2cc(C(=O)NCCCCCC(=O)N[C@@H](CCCNC(=N)N)C(=O)N[C@@H](CCC(=O)O)C(=O)N[C@H]3CCn4cc(nn4)CN(CC(=O)O)Cc4cn(nn4)CC[C@@H](C(=O)N[C@@H](CCC(=O)O)C(N)=O)NC(=O)CNC(=O)[C@H](CC(=O)O)NC(=O)CNC3=O)ccc21` [T-cp4n2m3N] has a Kd (TNKS2 ARC4) of 1.2 ± 0.02 µM.

For `CC(C)C[C@H](NC(=O)c1cc2cc(c1)-c1cn(nn1)CC[C@H](NC(=O)[C@H](CCC(=O)O)NC(=O)[C@H](CCCNC(=N)N)NC(=O)CCCCCNC(=O)c1ccc3c(c1)C(=O)OC31c3ccc(N(C)C)cc3Oc3cc(N(C)C)ccc31)C(=O)NCC(=O)N[C@@H](CC(=O)O)C(=O)NCC(=O)N[C@H](C(=O)N[C@@H](CCC(=O)O)C(N)=O)CCn1cc-2nn1)C(=O)N[C@@H](CS)C(=O)N[C@@H](CC(C)C)C(=O)N[C@@H](CCCNC(=N)N)C(N)=O` [T-cp4n2m3c-LCLR], the Kd (TNKS2 ARC4) was 0.73 ± 0.02 µM.

`CN(C)c1ccc2c(c1)Oc1cc(N(C)C)ccc1C21OC(=O)c2cc(C(=O)NCCCCCC(=O)N[C@@H](CCCNC(=N)N)C(=O)N[C@@H](CCC(=O)O)C(=O)N[C@H]3CCn4cc(nn4)-c4cc(C(=O)O)cc(c4)-c4cn(nn4)CC[C@@H](C(=O)N[C@@H](CCC(=O)O)C(N)=O)NC(=O)CNC(=O)[C@H](CC(=O)O)NC(=O)CNC3=O)ccc21` [T-cp4n2m3c] gave a Kd (TNKS2 ARC4) of 0.44 ± 0.01 µM.

B1: human Axin1 residues 1-80 (domain or fragment, UniProt O15169 1-80, looked up)
chain: MNIQEQGFPLDLGASFTEDAPRPPVPGEEGELVSTDPRPASYSFCSGKGVGIKGETSTATPRRSDLDLGYEPEGSASPTP
In the case of B1, the Kd [1] is reported as 2.78 ± 0.22 µM, the Kd [2] is reported as 2.62 ± 0.36 µM and the “stoichiometry N” value [2] is reported as 1 ± 0.03. For the same molecule, the Kd [3] was 1.59 ± 0.09 µM and the “stoichiometry N” value [3] was 2.1 ± 0.02.

B2: hAxin1_1-80: fragment of human Axin1, residues 1–80, containing both TNKS-binding motifs (protein)
chain: B1 chain
modifications: left off: GST, end not stated, cleaved
For B2, the “Stoichiometry (ITC), TNKS1 ARC2-3” value (TNKS1 ARC2-3) was “two”.

B3: T-cp4n2m3 (peptide)
chain: {5‑TAMRA-Ahx}-RE[Aha]GDG[Aha]E
modifications: triazole 3-7 via m3; reading uncertain
Work on B3 yielded a Kd [4] of 0.18 ± 0.007 µM.

B4: T-cp4n3m5 (peptide)
chain: {5‑TAMRA-Ahx}-RE[n3]GDG[n3]E
modifications: bridge 3-7; not fully specified (bridges)
B4 gave a Kd [5] of 1.9 ± 0.05 µM and a Kd (TNKS2 ARC4 (488–649)) of 1.91 µM.

B5: T-cp4n2m4 (peptide)
chain: {5‑TAMRA-Ahx}-RE[Aha]GDG[Aha]E
modifications: triazole 3-7 via m4; reading uncertain
In the case of B5, the Kd [4] is reported as 0.29 ± 0.008 µM and the Kd (TNKS2 ARC4 (488–649)) is reported as 0.81 µM.

B6: T-cp4n2m3N (peptide)
chain: {5‑TAMRA-Ahx}-RE[Aha]GDG[Aha]E
modifications: triazole 3-7 via m3N; reading uncertain
B6 was tested, and the Kd [4] was 0.28 ± 0.005 µM.

B7: T-cp4n2m5 (peptide)
chain: {5‑TAMRA-Ahx}-RE[Aha]GDG[Aha]E
modifications: triazole 3-7 via m5; reading uncertain
With B7 the Kd [5] was 1.3 ± 0.04 µM and the Kd (TNKS2 ARC4 (488–649)) was 1.29 µM.

B8: T-cp4n2m3c (peptide)
chain: {5‑TAMRA-Ahx}-RE[Aha]GDG[Aha]E-NH2
modifications: triazole 3-7 via m3c; reading uncertain
With B8 the Kd [4] was 0.32 ± 0.003 µM and the Kd [5] was 0.4 ± 0.01 µM.

B9: T-cp4n3m4 (peptide)
chain: {5‑TAMRA-Ahx}-RE[Orn(N3)]GDG[Orn(N3)]E
modifications: bridge 3-7; not fully specified (bridges)
For B9, the Kd [5] was 1.1 ± 0.03 µM and the Kd (TNKS2 ARC4 (488–649)) was 1.11 µM.
